Data as given in paper doi:10.1101/2025.06.13.659517, “Analysis of apo and citraconate-bound hACOD1 (hIRG1) by X-ray crystallography and NMR spectroscopy: Structural insights for developing chemotherapeutic agents” (bioRxiv, 2025).

Key:
purified protein = substrate: O=C(O)/C=C(/CC(=O)O)C(=O)O; assay: purified protein; format: biochemical, Homo sapiens; conditions: active site
[1] = target: the molecule itself; assay: crystal structure; crystals of apo and citraconate-bound hACOD1 (4-461) grown in conditions containing calcium acetate; solved by molecular replacement with PDB 6R6U; two protomers (chains A and B) form the dimer

B1: Human aconitate decarboxylase 1 (hACOD1), residues 4-461 (enzyme, UniProt A6NK06 4-461, looked up)
chain: KSITESFATAIHGLKVGHLTDRVIQRSKRMILDTLGAGFLGTTTEVFHIASQYSKIYSSNISSTVWGQPDIRLPPTYAAFVNGVAIHSMDFDDTWHPATHPSGAVLPVLTALAEALPRSPKFSGLDLLLAFNVGIEVQGRLLHFAKEANDMPKRFHPPSVVGTLGSAAAASKFLGLSSTKCREALAIAVSHAGAPMANAATQTKPLHIGNAAKHGIEAAFLAMLGLQGNKQVLDLEAGFGAFYANYSPKVLPSIASYSWLLDQQDVAFKRFPAHLSTHWVADAAASVRKHLVAERALLPTDYIKRIVLRIPNVQYVNRPFPVSEHEARHSFQYVACAMLLDGGITVPSFHECQINRPQVRELLSKVELEYPPDNLPSFNILYCEISVTLKDGATFTDRSDTFYGHWRKPLSQEDLEEKFRANASKMLSWDTVESLIKIVKNLEDLEDCSVLTTLLKGP
notes: The tag actually on the construct is therefore uncertain; also called hIRG1; hACOD1 (4-461); source: E. coli BL21-CodonPlus (RIPL), purified (StrepTactin column, TEV protease, SEC)
Purified protein
  Km: 9.3 ± 2.1 mM
[1]
  stoichiometry N: 2
